According to the supplement of paper PMC10126150:
± gives the standard deviation of the averaged measurements.

Test system: ATP
Experiment: switch fluorescence ratio, 500 uM ATP over buffer (Cy3 cluster intensity, sum of 5 cycles each) (fold (ratio)); higher = stronger signal-on switching upon ATP binding; sequences stand for … in TCGTCGGCAGCGTCAGATGTGTATAAGAGACAGTTTTTTTTTTTTTTTTTTTTTTTTT…TC
Conditions: aptamer strand: ATP DNA aptamer (quencher-CACCTGGGGGAGTATTGCGGAGGAAGG + anchor), 100 nM annealed; ATP concentration: 500 uM
How it was run: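 Per cluster, summed Cy3 intensity from the target cycles was divided by that from the buffer cycles to give the fluorescence ratio, then averaged per switch-domain sequence. Clusters outside 100-1000 RFU were excluded. The Cy3-labelled switching-strand clusters, on a modified Illumina MiSeq flow-cell, were annealed to 100 nM quencher-labelled ATP aptamer and imaged in selection buffer, then after 15 min with 500 uM ATP at 22 °C, for five cycles with NaOH stripping and re-annealing between them.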
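Note: ATP exposure 15 min at 22 °C before imaging.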

Sequence | switch fluorescence ratio
CATCGTTTTT | 1.02 ± 0.02
CATCTAAAGA | 1.005 ± 0.0067
CATCTAAGGG | 0.983 ± 0.042
CATCTAGGGC | 1.04 ± 0.028
CATCTCCCTG | 1.06 ± 0.016
CATCTGGGCC | 1.01 ± 0.022
CATCTTTGCA | 0.9943 ± 0.0063
CATGACGTGT | 1.01 ± 0.012
CATGACTCCC | 2.01 ± 0.13
CATGAGGTCG | 0.989 ± 0.047
CATGAGGTTA | 0.9855 ± 0.0094
CATGATAAT | 0.998 ± 0.022
CATGATGGGG | 0.96 ± 0.027
CATGATTGAT | 0.976 ± 0.029
CATGCAGGGT | 1.04 ± 0.016
CATGCCAAGC | 1.15 ± 0.045
CATGCGGCTA | 1.05 ± 0.044
CATGCGGTTG | 0.978 ± 0.013
CATGCGTTG | 0.9898 ± 0.0016
CATGCTATTC | 1.17 ± 0.049
CATGGAGATT | 0.9866 ± 0.0092
CATGGATGAA | 1.04 ± 0.007
CATGGATGCC | 0.998 ± 0.022
CATGGCACTT | 1.009 ± 0.0041
CATGGCTTAT | 1.01 ± 0.038

Sequence | switch fluorescence ratio
CATGGGAAGG | 0.997 ± 0.034
CATGGGAAGT | 1.01 ± 0.035
CATGGGACGT | 0.988 ± 0.071
CATGGGAGTT | 0.978 ± 0.025
CATGGGGATT | 1.017 ± 0.0057
CATGGGGCGG | 1 ± 0.052
CATGGGGGAC | 0.995 ± 0.031
CATGGGGGCG | 1.01 ± 0.078
CATGGGGGTC | 1 ± 0.036
CATGGGGTCT | 1.03 ± 0.05
CATGGGGTTT | 1.01 ± 0.018
CATGGTAAGT | 0.994 ± 0.053
CATGGTTCGC | 0.985 ± 0.053
CATGGTTCTG | 1.02 ± 0.027
CATGGTTGCG | 0.987 ± 0.022
CATGGTTTTT | 0.9989 ± 0.0082
CATGTAGGTG | 1.06 ± 0.048
CATGTAGTCT | 1.04 ± 0.013
CATGTAGTGC | 1.03 ± 0.089
CATGTCGGTT | 0.991 ± 0.019
CATGTGTTTG | 0.993 ± 0.014
CATGTTGCGA | 1.04 ± 0.023
CATGTTTGCC | 1.02 ± 0.015
CATGTTTGTG | 0.982 ± 0.023
CATGTTTTTT | 0.987 ± 0.024

Sequence | switch fluorescence ratio
CATTAAGTCT | 1.02 ± 0.036
CATTAATAGT | 0.98 ± 0.031
CATTACAACA | 1.02 ± 0.059
CATTACGCCG | 1.11 ± 0.042
CATTACGGCG | 0.995 ± 0.043
CATTAGACAT | 0.994 ± 0.026
CATTAGAGGG | 0.988 ± 0.031
CATTAGGGTC | 0.932 ± 0.019
CATTAGTCGT | 0.996 ± 0.013
CATTAGTTGT | 1.02 ± 0.011
CATTAGTTTC | 1 ± 0.028
CATTATACAT | 1.01 ± 0.023
CATTATAGAT | 0.997 ± 0.021
CATTATAGCG | 0.991 ± 0.023
CATTATGTGC | 0.981 ± 0.027
CATTATGTTG | 0.969 ± 0.036
CATTATTTAG | 1.01 ± 0.033
CATTATTTGG | 1.003 ± 0.002
CATTATTTTT | 1.01 ± 0.024
CATTCATGTT | 0.985 ± 0.024
CATTCATTGA | 0.998 ± 0.049
CATTCGATGC | 1.265 ± 0.0044
CATTCGCTTT | 1.88 ± 0.036
CATTCGTAGG | 0.965 ± 0.042
CATTCTAAAG | 1.02 ± 0.011

Sequence | switch fluorescence ratio
CATTCTACGT | 1.04 ± 0.018
CATTCTATGC | 1.03 ± 0.011
CATTCTCAAT | 1.17 ± 0.056
CATTGAAATT | 0.968 ± 0.032
CATTGAGGGC | 0.987 ± 0.021
CATTGCATTT | 1.3 ± 0.4
CATTGCTATT | 1.02 ± 0.017
CATTGGACGT | 1.029 ± 0.0063
CATTGGGTG | 1.05 ± 0.018
CATTGGGTGT | 1.03 ± 0.0098
CATTGTGACT | 1 ± 0.016
CATTGTGCCT | 1.04 ± 0.018
CATTGTGTGA | 0.994 ± 0.021
CATTGTGTTT | 0.9707 ± 0.0029
CATTTAAGTC | 0.995 ± 0.023
CATTTACGCT | 1.03 ± 0.014
CATTTAGTAT | 1.01 ± 0.013
CATTTATTCT | 0.9615 ± 0.0021
CATTTATTGT | 0.992 ± 0.018
CATTTCAAGG | 1 ± 0.043
CATTTGCTCT | 1 ± 0.013
CATTTGGATG | 1.02 ± 0.013
CATTTGGCGT | 0.972 ± 0.029
CATTTGGGGG | 0.977 ± 0.025
CATTTGGTCG | 0.955 ± 0.13

Sequence | switch fluorescence ratio
CATTTTAATA | 1.01 ± 0.021
CATTTTGTAG | 1.039 ± 0.0043
CATTTTTGAA | 1.006 ± 0.0066
CATTTTTGTG | 0.9534 ± 0.0061
CATTTTTTAG | 1.01 ± 0.016
CCAAAATTGA | 1 ± 0.014
CCAAACTTAG | 1.02 ± 0.027
CCAAAGAGGG | 0.993 ± 0.02
CCAAAGCTAG | 2.1 ± 0.028
CCAAATCAGA | 0.986 ± 0.021
CCAACGGTCT | 1.04 ± 0.0012
CCAAGAGGAC | 1 ± 0.027
CCAAGATGTG | 0.997 ± 0.01
CCAAGCGGTA | 1.3 ± 0.026
CCAAGGGATG | 0.967 ± 0.018
CCAAGGGGAG | 0.988 ± 0.037
CCAAGGGGTT | 1.01 ± 0.03
CCAATAGAGT | 0.997 ± 0.046
CCAATATAGC | 1.21 ± 0.016
CCAATATTCG | 1.09 ± 0.056
CCAATGAGGT | 0.9962 ± 0.0084
CCAATGATAA | 1.014 ± 0.0034
CCAATTGCGC | 1.03 ± 0.031
CCAATTTGCT | 1.02 ± 0.056
CCACCTTAAG | 1.04 ± 0.033

Sequence | switch fluorescence ratio
CCACGAAGAT | 1.061 ± 0.0037
CCACGCCAGG | 2.79 ± 0.084
CCACGCCCGG | 1.15 ± 0.099
CCACGCCTGT | 1.09 ± 0.022
CCACTATTCT | 1.001 ± 0.0062
CCACTTTCCT | 1.2 ± 0.021
CCAGAAGGGT | 0.974 ± 0.02
CCAGACACAC | 1.45 ± 0.018
CCAGACAGC | 1.01 ± 0.052
CCAGACCAGT | 1.011 ± 0.0024
CCAGAGGAAT | 1.043 ± 0.0079
CCAGAGGGGG | 0.985 ± 0.067
CCAGAGGGGT | 1.04 ± 0.02
CCAGAGTGTT | 1.33 ± 0.04
CCAGCCTTTT | 1.025 ± 0.0039
CCAGCTACGG | 1.06 ± 0.053
CCAGCTGTAT | 1.04 ± 0.0024
CCAGCTTTTT | 0.957 ± 0.054
CCAGGAATAA | 1.11 ± 0.14
CCAGGAGTGT | 1.08 ± 0.012
CCAGGCTCTG | 0.993 ± 0.006
CCAGGGGCGC | 1.04 ± 0.017
CCAGGGGCGG | 1.067 ± 0.002
CCAGGGGCGT | 1.393 ± 0.012
CCAGGGGTCC | 2.93 ± 2.4

Sequence | switch fluorescence ratio
CCAGGGTTGG | 1.04 ± 0.048
CCAGGTAGCA | 1.27 ± 0.12
CCAGGTATGG | 1.05 ± 0.013
CCAGGTCATA | 1.07 ± 0.011
CCAGGTCCGC | 1.455 ± 0.0073
CCAGTATGTG | 1.04 ± 0.054
CCAGTCTGTA | 0.9492 ± 0.0057
CCAGTGATGG | 1 ± 0.042
CCAGTGGTTT | 1.01 ± 0.012
CCATAAACTA | 1.01 ± 0.066
CCATAACTTA | 0.9782 ± 0.0033
CCATAAGAAT | 1.01 ± 0.038
CCATACAGTT | 1.01 ± 0.021
CCATAGGTCC | 1.017 ± 0.0071
CCATAGTTTG | 0.993 ± 0.018
CCATATCGTT | 0.997 ± 0.01
CCATATTCTC | 1.016 ± 0.0072
CCATCTATCG | 1.03 ± 0.026
CCATCTCTGG | 0.979 ± 0.022
CCATGCACTG | 1.017 ± 0.0028
CCATGCCGGG | 0.979 ± 0.052
CCATGGGCGA | 1.1 ± 0.02
CCATGGGGCT | 1.29 ± 0.46
CCATGGGTTC | 1.0016 ± 0.00068
CCATGGTTAT | 1.026 ± 0.0034

Sequence | switch fluorescence ratio
CCATGTTGCT | 0.9612 ± 0.0059
CCATTAAACT | 1.014 ± 0.008
CCATTAGCAT | 2.12 ± 0.2
CCATTATATC | 1.01 ± 0.047
CCATTCTTCG | 1.08 ± 0.028
CCATTGACGG | 1.04 ± 0.02
CCATTGCACG | 1.16 ± 0.12
CCATTGCTCG | 1.04 ± 0.05
CCATTGTAGC | 1.03 ± 0.024
CCATTTAGTT | 1.09 ± 0.12
CCATTTCTTG | 0.9906 ± 0.0095
CCATTTTTTT | 0.997 ± 0.042
CCCAAAGCGG | 1.09 ± 0.032
CCCAAAGGGG | 1.04 ± 0.04
CCCAATTTTG | 1.05 ± 0.069
CCCAGATTAA | 1.01 ± 0.085
CCCAGGGGA | 1.91 ± 1
CCCAGTGGGA | 2.25 ± 1.7
CCCATACTGA | 1.11 ± 0.036
CCCATAGTAT | 1.01 ± 0.058
CCCCACTTGC | 1.32 ± 0.11
CCCCAGGAAT | 1.24 ± 0.027
CCCCATTTTT | 1.06 ± 0.067
CCCCGGATTT | 1.09 ± 0.098
CCCCGTTAGT | 1.01 ± 0.08
